Laboratory results published in paper PMC3708532 (RNA, 2013).
Where “and” joins values, the source holds several entries; their conditions need not be identical. Equal entries are not always repeated.

Tests used:
[1] = molecular target: the molecule itself; assay: negative-stain electron microscopy
[2] = molecular target: the molecule itself; assay: cross-linking

B1: Schmallenberg virus (SBV) nucleocapsid (N) protein (natural protein)
chain: MSSQFIFEDVPQRNAATFNPEVGYVAFIGKYGQQLNFGVARVFFLNQKKAKMVLHKTAQPSVDLTFGGVKFTVVNNHFPQYVSNPVPDNAITLHRMSGYLARWIADTCKASVLKLAEASAQIVMPLAEVKGCTWADGYTMYLGFAPGAEMFLDAFDFYPLVIEMHRVLKDNMDVNFMKKVLRQRYGTMTAEEWMTQKITEIKAAFNSVGQLAWAKSGFSPAARTFLQQFGINI
[1]
  stoichiometry N: 4 and 5
[2]
  stoichiometry N: 3
